{"source": "patent US20200262889A1", "about": "(B G NEGEV TECHNOLOGIES AND APPLICATIONS LTD AT BEN GURION …, published 2020)", "binders": {"B1": {"name": "IRBIT (IP3 receptor-binding protein released with IP3; S-adenosylhomocysteine hydrolase-like protein) (other)", "chain": "SMPDAMPLPGVGEELKQAKEIEDAEKYSFMATVTKAPKKQIQFADDMQEFTKFPTKTGRRSLSRSISQSSTDSYSSAASYTDSSDDEVSPREKQQTNSKGSSNFCVKNIKQAEFGRREIEIAEQDMSALISLRKRAQGEKPLAGAKIVGCTHITAQTAVLIETLCALGAQCRWSACNIYSTQNEVAAALAEAGVAVFAWKGESEDDFWWCIDRCVNMDGWQANMILDDGGDLTHWVYKKYPNVFKKIRGIVEESVTGVHRLYQLSKAGKLCVPAMNVNDSVTKQKFDNLYCCRESILDGLKRTTDVMFGGKQVVVCGYGEVGKGCCAALKALGAIVYITEIDPICALQACMDGFRVVKLNEVIRQVDVVITCTGNKNVVTREHLDRMKNSCIVCNMGHSNTEIDVTSLRTPELTWERVRSQVDHVIWPDGKRVVLLAEGRLLNLSCSTVPTFVLSITATTQALALIELYNAPEGRYKQDVYLLPKKMDEYVASLHLPSFDAHLTELTDDQAKYLGLNKNGPFKPNYYRY", "notes": "The methods say only 'IRBIT in pcDNA3.1(+)'"}}, "target": "T1, mouse OAT-3 (oat3, slc22a8) (mouse, UniProt O88909 1-537)", "T1 construct": "whole, on cells; Expressed in HEK293T cells; coIP from lysates; not shown: myc-DDK tag of the pCMV6-Entry myc-DDK vector", "T1 sequence (looked up)": "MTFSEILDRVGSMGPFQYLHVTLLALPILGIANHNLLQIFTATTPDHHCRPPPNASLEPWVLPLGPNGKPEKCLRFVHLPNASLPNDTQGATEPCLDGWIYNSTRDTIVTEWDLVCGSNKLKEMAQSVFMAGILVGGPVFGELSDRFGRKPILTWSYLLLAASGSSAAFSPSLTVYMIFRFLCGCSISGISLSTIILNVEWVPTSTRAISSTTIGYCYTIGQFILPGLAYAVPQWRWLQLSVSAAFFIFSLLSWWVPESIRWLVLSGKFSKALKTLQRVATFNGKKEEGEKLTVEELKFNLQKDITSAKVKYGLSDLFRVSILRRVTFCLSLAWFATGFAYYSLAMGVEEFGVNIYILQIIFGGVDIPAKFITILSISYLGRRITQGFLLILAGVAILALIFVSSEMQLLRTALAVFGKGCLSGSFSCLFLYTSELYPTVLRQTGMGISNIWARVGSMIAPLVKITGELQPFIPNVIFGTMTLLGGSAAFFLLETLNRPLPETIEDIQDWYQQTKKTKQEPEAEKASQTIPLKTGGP", "experiment": "coIP from HEK293T cells co-transfected with OAT-3 and IRBIT", "source_text": "To determine whether IRBIT regulates succinate efflux via interaction with OATs, the interaction of OAT-1 and/or OAT-3 with IRBIT was monitored by coIP. […] Succinate uptake was elevated by expression of OAT-1 alone, that was abolished by the OAT inhibitor probenecid (FIG. 6B-C). Neither IRBIT, SUCNR1 stimulation, nor inhibition of PLC by U73122 affected the OAT-mediated succinate uptake. These findings indicate that OAT-1 activity is IRBIT-independent.", "data": [{"binder": "B1", "values": [{"measurement": "binding result", "value": "no binding"}]}]}
